# US20200317768A1 (published 2020)
# Positions count from the first letter of the chain named. Numbers in names are those of the source.
# T1: cynomolgus monkey FcγRIIa1 extracellular domain, C-terminal His-tag (cynomolgus monkey)
# T1 construct: also called cyno FcγRIIa1; cynoFcgRIIa1
# T1 chain: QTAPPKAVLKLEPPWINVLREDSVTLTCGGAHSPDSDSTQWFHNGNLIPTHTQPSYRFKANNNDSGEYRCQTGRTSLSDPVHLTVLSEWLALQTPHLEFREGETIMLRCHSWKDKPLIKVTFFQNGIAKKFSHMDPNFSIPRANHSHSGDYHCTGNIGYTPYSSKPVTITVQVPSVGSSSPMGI
# T2: cynomolgus monkey FcγRIIa2 extracellular domain, C-terminal His-tag (cynomolgus monkey)
# T2 construct: also called cyno FcγRIIa2; cynoFcgRIIa2
# T2 chain: T1 chain with P95T, T121A, I127K, A128S, K130N, D135N, R142Q
# T3: cynomolgus monkey FcγRIIa3 extracellular domain, C-terminal His-tag (cynomolgus monkey)
# T3 construct: also called cyno FcγRIIa3; cynoFcgRIIa3
# T3 chain: T1 chain with P95T, T121A, A128S, H133P, D135N
# T4: cynomolgus monkey FcγRIIb extracellular domain, C-terminal His-tag (cynomolgus monkey)
# T4 construct: also called cyno FcγRIIb; cynoFcγRIIb
# T4 chain: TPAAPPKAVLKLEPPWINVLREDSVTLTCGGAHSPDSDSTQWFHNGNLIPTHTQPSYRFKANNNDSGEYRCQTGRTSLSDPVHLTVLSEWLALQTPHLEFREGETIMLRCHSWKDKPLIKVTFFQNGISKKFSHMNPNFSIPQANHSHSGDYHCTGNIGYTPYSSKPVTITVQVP
# T5: cynomolgus monkey FcγRIIIaS extracellular domain, C-terminal His-tag (cynomolgus monkey, UniProt Q8SPW2 21-206 at identity 1.00))
# T5 construct: also called cyno FcγRIIIaS; cynoFcγRIIIaS
# T5 chain: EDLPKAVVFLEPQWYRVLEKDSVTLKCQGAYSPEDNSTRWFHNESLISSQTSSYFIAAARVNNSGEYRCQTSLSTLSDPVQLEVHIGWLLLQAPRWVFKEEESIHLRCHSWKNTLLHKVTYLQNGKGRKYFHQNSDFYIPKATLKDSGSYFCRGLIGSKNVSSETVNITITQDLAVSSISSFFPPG
# T6: human FcγRIIaH extracellular domain, C-terminal His-tag (human, UniProt P12318 34-217)
# T6 construct: also called human FcγRIIa (type H); FcgRIIaH
# T6 sequence: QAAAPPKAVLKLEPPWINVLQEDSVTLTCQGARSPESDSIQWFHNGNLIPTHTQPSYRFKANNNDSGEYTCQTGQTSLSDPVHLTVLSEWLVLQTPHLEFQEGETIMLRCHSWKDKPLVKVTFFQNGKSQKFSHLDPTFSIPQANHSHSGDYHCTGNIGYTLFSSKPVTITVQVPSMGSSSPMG
# T7: human FcγRIIaR extracellular domain, C-terminal His-tag (human, UniProt P12318 34-217)
# T7 construct: also called human FcγRIIa (type R); FcgRIIaR
# T7 chain: T6 sequence with H134R
# T8: human FcγRIIb extracellular domain, C-terminal His-tag (human, UniProt P31994 43-217)
# T8 construct: also called human FcgRIIb; FcgRIIb
# T8 sequence: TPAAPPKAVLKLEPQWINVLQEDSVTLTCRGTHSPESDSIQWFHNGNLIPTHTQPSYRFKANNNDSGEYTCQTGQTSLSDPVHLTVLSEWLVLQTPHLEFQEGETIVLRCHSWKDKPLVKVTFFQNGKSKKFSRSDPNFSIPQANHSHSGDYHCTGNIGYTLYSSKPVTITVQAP
# T9: cynomolgus monkey FcγRIIa1 extracellular domain with C-terminal His-tag (cynomolgus monkey)
# T9 construct: also called cyno FcgRIIa1; cynoFcγRIIa1
# T9 chain: T1 chain
# T10: cynomolgus monkey FcγRIIa2 extracellular domain with C-terminal His-tag (cynomolgus monkey)
# T10 construct: also called cyno FcgRIIa2; cynoFcγRIIa2
# T10 chain: T1 chain with P95T, T121A, I127K, A128S, K130N, D135N, R142Q
# T11: cynomolgus monkey FcγRIIa3 extracellular domain with C-terminal His-tag (cynomolgus monkey)
# T11 construct: also called cyno FcgRIIa3; cynoFcγRIIa3
# T11 chain: T1 chain with P95T, T121A, A128S, H133P, D135N
# T12: cynomolgus monkey FcγRIIb extracellular domain with C-terminal His-tag (cynomolgus monkey)
# T12 construct: also called cyno FcgRIIb; cynoFcγRIIb
# T12 chain: T4 chain
# T13: cynomolgus monkey FcγRIIIaS extracellular domain with C-terminal His-tag (cynomolgus monkey, UniProt Q8SPW2 21-206 at identity 1.00))
# T13 construct: also called cyno FcgRIIIaS; cynoFcγRIIIaS
# T13 chain: T5 chain
# T14: human FcγRIIaH extracellular domain with C-terminal His-tag (human, UniProt P12318 34-217)
# T14 construct: also called human FcgRIIaH; FcγRIIa (type H)
# T14 sequence: T6 sequence
# T15: human FcγRIIaR extracellular domain with C-terminal His-tag (human, UniProt P12318 34-217)
# T15 construct: also called human FcgRIIaR; FcγRIIa (type R)
# T15 chain: T6 sequence with H134R
# T16: human FcγRIIb extracellular domain with C-terminal His-tag (human, UniProt P31994 43-217)
# T16 construct: also called human FcgRIIb
# T16 sequence: T8 sequence
# B1: M103205H795-MY538/M103202L889-SK1 (Table 19: L235W/G236N/H268D/Q295L/K326T/A330K) (antibody, human IgG1, kappa)
# heavy: QVTLKESGPVLVKPTETLTLTCTVSGIDLSHDDISWVRQAPGKGLEWVGIISYAGSTYYASWAKGRLTISKDTSKNQVVLTMTNMDPVDTATYYCARGVPAYSHGGDLWGQGTLVTVSSASTKGPSVFPLAPSSKSTSGGTAALGCLVKDYFPEPVTVSWNSGALTSGVHTFPAVLQSSGLYSLSSVVTVPSSSLGTQTYICNVNHKPSNTKVDKKVEPKSCDKTHTCPPCPAPELWNGPSVFLFPPKPKDTLMISRTPEVTCVVVDVSDEDPEVKFNWYVDGVEVHNAKTKPREELYNSTYRVVSVLTVLHQDWLNGKEYKCKVSNTALPKPIEKTISKAKGQPREPQVYTLPPSREEMTKNQVSLTCLVKGFYPSDIAVEWESNGQPENNYKTTPPVLDSDGSFFLYSKLTVDKSRWQQGNVFSCSVMHEALHNHYTQKSLSLSP
# light: DIVMTQSPATLSLSPGERATLSCTSSQSVYHANWLSWFQQKPGQPPKLLIYWASTLAYGVPSRFSGSGSGTDFTLTISSLQPEDAATYYCAGGYGGGRYAFGQGTKVEIKRTVAAPSVFIFPPSDEQLKSGTASVVCLLNNFYPREAKVQWKVDNALQSGNSQESVTEQDSKDSTYSLSSTLTLSKADYEKHKVYACEVTHQGLSSPVTKSFNRGEC
# notes: also called MY518 (as the text names this set of substitutions)
# B2: M103205H795-MY534/M103202L889-SK1 (antibody, human IgG1, kappa)
# heavy: B1 heavy with W237L, N238T, S241V, T328K
# light: B1 light
# notes: Substitutions introduced into M103205H795-SG1, expressed with M103202L889-SK1 as light chain; EU numbering
# B3: M103205H795-MY538/M103202L889-SK1 (A231G/L234W/G236T/H268D/Q295L/A330K) (antibody, human IgG1, kappa)
# heavy: B1 heavy with A233G, L236W, W237L, N238T, T328K
# light: B1 light
# notes: as for B2
# B4: M103205H795-MY533/M103202L889-SK1 (antibody, human IgG1, kappa)
# heavy: B1 heavy with L236W, W237L, N238T, S241V, T328K
# light: B1 light
# notes: as for B2
# B5: M103205H795-MY537/M103202L889-SK1 (antibody, human IgG1, kappa)
# heavy: B1 heavy with A233G, L236W, W237L, N238T, S241V, T328K
# light: B1 light
# notes: as for B2
# B6: M103205H795-MY536/M103202L889-SK1 (antibody, human IgG1, kappa)
# heavy: B1 heavy with A233G, L236W, W237L, N238T, S241V, L297Q, T328K
# light: B1 light
# notes: as for B2
# B7: M103205H795-MY535/M103202L889-SK1 (antibody, human IgG1, kappa)
# heavy: B1 heavy with A233G, L236W, W237L, N238T, L297Q, T328K
# light: B1 light
# notes: as for B2
# Biological target: T1, cynomolgus monkey FcγRIIa1 …
# Assay: SPR (Biacore), antibody captured, FcgR analyte
row,Kd [µM],Binder
1,0.89,B1

# Biological target: T2, cynomolgus monkey FcγRIIa2 …
# Assay: SPR (Biacore), antibody captured, FcgR analyte
row,Kd [µM],Binder
1,0.9,B1

# Biological target: T3, cynomolgus monkey FcγRIIa3 …
# Assay: SPR (Biacore), antibody captured, FcgR analyte
row,Kd [µM],Binder
1,2.4,B1

# Biological target: T4, cynomolgus monkey FcγRIIb extracellular …
# Assay: SPR (Biacore), antibody captured, FcgR analyte
row,Kd [µM],Binder
1,0.26,B1

# Biological target: T5, cynomolgus monkey FcγRIIIaS …
# Assay: SPR (Biacore), antibody captured, FcgR analyte
row,Kd [µM],Binder
1,4.2,B1

# Biological target: T6, human FcγRIIaH extracellular domain, …
# Assay: SPR (Biacore), antibody captured, FcgR analyte
row,Kd [µM],Binder
1,0.85,B1

# Biological target: T7, human FcγRIIaR extracellular domain, …
# Assay: SPR (Biacore), antibody captured, FcgR analyte
row,Kd [µM],Binder
1,0.67,B1

# Biological target: T8, human FcγRIIb extracellular domain, …
# Assay: SPR (Biacore), antibody captured, FcgR analyte
row,Kd [µM],Binder
1,0.48,B1

# Biological target: T17, human FcγRIIIaV extracellular domain, C-terminal His-tag (human, UniProt P08637 17-208)
# T17 construct: also called human FcgRIIIaV; FcgRIIIaV
# Assay: SPR (Biacore), antibody captured, FcgR analyte
# T17 sequence (P08637 17-208 F176V): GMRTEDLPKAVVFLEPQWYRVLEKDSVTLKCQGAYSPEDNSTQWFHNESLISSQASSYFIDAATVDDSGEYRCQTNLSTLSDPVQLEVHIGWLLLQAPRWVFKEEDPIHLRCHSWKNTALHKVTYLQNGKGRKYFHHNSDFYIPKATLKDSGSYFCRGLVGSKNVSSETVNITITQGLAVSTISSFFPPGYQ
row,Kd [µM],Binder
1,23,B1

# Biological target: T9, cynomolgus monkey FcγRIIa1 …
# Assay: SPR (BIACORE), antibody captured, FcgR analyte
# Method: (§1) The kinetic analysis of interactions between these antibodies and FcγR was carried out using BIACORE® T200 or BIACORE® 4000 (GE Healthcare). HBS-EP+ (GE Healthcare) was used as the running buffer, and the measurement temperature was set to 25° C. A chip produced by immobilizing Protein A. Protein A/G or mouse anti-human IgG kappa light chain (BD Biosciences) onto a Series S Sensor Chip CM4 or CM5 (GE Healthcare) by the amine-coupling method was used. […] After the measurement, the antibody captured on the chip was washed off by allowing reaction with 10 mM glycine-HCl, pH1.5 and 25 mM NaOH so that the chip was regenerated and used repeatedly. The sensorgrams obtained as measurement results were analyzed by the 1:1 Langmuir binding model using the BIACORE® Evaluation Software to calculate the binding rate constant ka (L/mol/s) and dissociation rate constant kd (l/s), and the dissociation constant KD (mol/L) was calculated from these values. […] Regarding such interactions, KD values were calculated using the following 1:1 binding model described in BIACORE® T100 Software Handbook BR1006-48 Edition AE.
# (§2) The behavior of interacting molecules according to the 1:1 binding model on BIACORE® can be described by Equation 1: Req=C·R max/(KD+C)+RI, wherein, Req is a plot of steady-state binding levels to analyte concentration. C is concentration, RI is bulk refractive index contribution in the sample, and Rmax is analyte binding capacity of the surface. When this equation is rearranged, KD can be expressed as Equation 2: KD=C·Rmax/(Req−RI)−C. KD can be calculated by substituting the values of Rmax, RI, and C into Equation 1 or Equation 2. From the current measurement conditions, RI=0, C=2 μmol/L can be used.
row,Kd [µM],Binder
1,1.3,B2
2,0.96,B3
3,0.8,B4
4,1.2,B5
5,1.3,B6
6,1.3,B7

# Biological target: T10, cynomolgus monkey FcγRIIa2 …
# Assay: SPR (BIACORE), antibody captured, FcgR analyte
# Method: as §1, §2
row,Kd [µM],Binder
1,1.3,B2
2,1.1,B3
3,0.73,B4
4,1.1,B5
5,1.1,B6
6,1.4,B7

# Biological target: T11, cynomolgus monkey FcγRIIa3 …
# Assay: SPR (BIACORE), antibody captured, FcgR analyte
# Method: as §1, §2
row,Kd [µM],Binder
1,1.2,B2
2,3,B3
3,1.2,B4
4,1.4,B5
5,0.98,B6
6,3,B7

# Biological target: T12, cynomolgus monkey FcγRIIb extracellular …
# Assay: SPR (BIACORE), antibody captured, FcgR analyte
# Method: as §1, §2
row,Kd [µM],Binder
1,0.42,B2
2,0.28,B3
3,0.25,B4
4,0.32,B5
5,0.4,B6
6,0.41,B7

# Biological target: T13, cynomolgus monkey FcγRIIIaS …
# Assay: SPR (BIACORE), antibody captured, FcgR analyte
# Method: as §1, §2
row,Kd [µM],Binder
1,1.7,B2
2,2.4,B3
3,1.1,B4
4,1.5,B5
5,1.6,B6
6,2.1,B7

# Biological target: T14, human FcγRIIaH extracellular domain …
# Assay: SPR (BIACORE), antibody captured, FcgR analyte
# Method: as §1, §2
row,Kd [µM],Binder
1,0.17,B2
2,0.25,B3
3,0.21,B4
4,0.28,B5
5,0.29,B6
6,0.39,B7

# Biological target: T15, human FcγRIIaR extracellular domain …
# Assay: SPR (BIACORE), antibody captured, FcgR analyte
# Method: as §1, §2
row,Kd [µM],Binder
1,0.19,B2
2,0.62,B3
3,0.2,B4
4,0.37,B5
5,0.22,B6
6,0.64,B7

# Biological target: T16, human FcγRIIb extracellular domain with …
# Assay: SPR (BIACORE), antibody captured, FcgR analyte
# Method: as §1, §2
row,Kd [µM],Binder
1,0.12,B2
2,1.3,B3
3,0.95,B4
4,1,B5
5,0.99,B6
6,1.9,B7

# Biological target: T18, human FcγRIIIaV extracellular domain with C-terminal His-tag (human, UniProt P08637 17-208)
# T18 construct: also called human FcgRIIIaV
# Assay: SPR (BIACORE), antibody captured, FcgR analyte
# Method: as §1, §2
# T18 sequence (P08637 17-208 F176V): as above
row,Kd [µM],Binder
1,4.3,B2
2,5.7,B3
3,1.8,B4
4,3.3,B5
5,3.7,B6
6,3.2,B7
